Laboratory results from patent US20230149515A1, “INHIBITION OF SARS-COV-2 VIRAL ENTRY THROUGH ORAL ADMINISTRATION OF L[…] USES THEREOF” (priority 2020, published 2023).

Tested on: SARS-CoV-2
Format: cell-based

B1: lactoferrin (protein, UniProt P02788 20-710, looked up)
Lactotransferrin: GRRRSVQWCAVSQPEATKCFQWQRNMRKVRGPPVSCIKRDSPIQCIQAIAENRADAVTLDGGFIYEAGLAPYKLRPVAAEVYGTERQPRTHYYAVAVVKKGGSFQLNELQGLKSCHTGLRRTAGWNVPIGTLRPFLNWTGPPEPIEAAVARFFSASCVPGADKGQFPNLCRLCAGTGENKCAFSSQEPYFSYSGAFKCLRDGAGDVAFIRESTVFEDLSDEAERDEYELLCPDNTRKPVDKFKDCHLARVPSHAVVARSVNGKEDAIWNLLRQAQEKFGKDKSPKFQLFGSPSGQKDLLFKDSAIGFSRVPPRIDSGLYLGSGYFTAIQNLRKSEEEVAARRARVVWCAVGEQELRKCNQWSGLSEGSVTCSSASTTEDCIALVLKGEADAMSLDGGYVYTAGKCGLVPVLAENYKSQQSSDPDPNCVDRPVEGYLAVAVVRRSDTSLTWNSVKGKKSCHTAVDRTAGWNIPMGLLFNQTGSCKFDEYFSQSCAPGSDPRSNLCALCIGDEQGENKCVPNSNERYYGYTGAFRCLAENAGDVAFVKDVTVLQNTDGNNNEAWAKDLKLADFALLCLDGKRKPVTEARSCHLAMAPNHAVVSRMDKVERLKQVLLHQQAKFGRNGSDCPDKFCLFQSETKNLLFNDNTECLARLHGKTTYEKYLGPQYVAGITNLKKCSTSPLLEACEFLRK
Huh-7 cells, FIG. 2
  efficacy in preventing SARS-CoV-2 infection: ~100%
All concentrations of lactoferrin tested, FIG. 3B
  inhibition of SARS-CoV-2 infection (efficacy): 100%
Dose response study, all concentrations tested ranging from 200 ug/mL to 12.5 ug/mL, compared to viral control, FIG. 3A
  reduction in SARS-Cov-2 synctitia: > 95%
